Data on 19 molecules can be found in patent US20230295310A1 (ABCELLERA BIOLOGICS, published 2023).

The target in one assay is T1, human CD3e/d (human, UniProt P07766 23-126; P04234 22-105).
T1 construct: Bought soluble protein; also called hCD3e/d; human CD3/ed (Sino CT038-H2508H)
As to the kind of experiment: SPR (Carterra LSA), mAb on chip. In a few lines: (§1)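 Purified mAbs amine-coupled (EDC/S-NHS) at 10 μg/mL in 10 mM NaOAc pH 4.25 onto an HC-30M chip, with benchmark and negative-control mAbs; analyte flowed over the array. Double-referenced sensorgrams fitted globally to a 1:1 Langmuir model for ka, kd and KD.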

For the next assay, the target named is T2, human CD3e/g (human, UniProt P07766 23-126; P09693 23-116).
T2 construct: Bought soluble protein; also called hCD3e/g; human CD3e/g (Acro CDD-C52W4)
As to the kind of experiment: SPR (Carterra LSA), mAb on chip. In short, it runs like this: as §1

T2 sequence (P07766 23-126, chain 1 of 2): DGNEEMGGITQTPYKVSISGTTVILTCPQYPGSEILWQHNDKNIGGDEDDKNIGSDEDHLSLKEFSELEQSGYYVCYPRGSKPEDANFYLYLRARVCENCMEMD
T2 sequence (P09693 23-116, chain 2 of 2): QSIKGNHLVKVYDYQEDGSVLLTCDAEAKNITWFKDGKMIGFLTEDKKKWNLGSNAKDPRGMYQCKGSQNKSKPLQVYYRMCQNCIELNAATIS
T1 sequence (P07766 23-126, chain 1 of 2): as the sequence (P07766 23-126, chain 1 of 2) above
T1 sequence (P04234 22-105, chain 2 of 2): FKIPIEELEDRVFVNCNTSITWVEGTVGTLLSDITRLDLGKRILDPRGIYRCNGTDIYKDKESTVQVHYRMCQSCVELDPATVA

B1: mAb 85 (antibody, V domains shown)
VH: QVQLVQSGAEVKKPGASVKVSCKASGYTVTGYYMHWVRQAPGQGLEWMGWINPNSGGTNFAQNFQGRVTMTRDTSISTFYMDLNRLRSDDTAVYYCARGGAPVSYWFFDLWGRGTLVTVSS
VL: DIQMTQSPSSLSASVGDRVTITCRASQSISRYLNWYQQKPGKAPKVLIYNTSSLKSGVPSRFSGSGSGTDFTLTISSLQPEDFGTFYCQQSHSTPFTFGPGTKVDIK
notes: VH and VL only
For the molecule B1, the Kd with human CD3e/d is 117 nM; in the assay with human CD3e/g, 102 nM.

B2: mAb 66 (antibody, V domains shown)
VH: QVQLVQSGAEVKKPGASVKVSCKASGYTVTGYYMHWVRQAPGQGLEWMGWINPNSGGTNFAQNFQGRVTMTRDTSISTFYMDLSRLRSDDTAVYYCARGGAPVSYWFFDLWGRGTLVTVSS
VL: DIQMTQSPSSLSASVGDRVTITCRASQSISRYLNWYQQKPGKAPKVLIYNTSSLKSGVPSRFSGSGSGTDFTLTISSLQPEDFATLYCQQSHSTPFTFGPGTKVDIK
notes: VH and VL only
As to B2, the dissociation constant (Kd) with human CD3e/d turned out to be 149 nM; with human CD3e/g, 125 nM.

B3: mAb 79 (antibody, V domains shown)
VH: QVQLVQSGAEVKKPGASVKVSCKASGYIVTGYYMHWVRQAPGHGLEWMGWINPNSGGTNFAQNFQGRVTMTRDTSISTFYMDLNRLTSDDTAVYYCARGGAPVSYWFFDLWGRGTLVTVSS
VL: DIQMTQSPSSLSASVGDRVTITCRASQNINSYLNWYHQKPGKAPKVLIYNTSTLKSGVPSRFSGSGSGTYFTLTISSLQPEDFATFYCQQSHSTPFTFGPGTKVDIK
notes: VH and VL only
Turning to B3, the Kd with human CD3e/d worked out at 124 nM; in the assay with human CD3e/g, 74.8 nM.

B4: mAb 237 (antibody, V domains shown)
VH: EVQLLESGGDLVQPGGSLRLTCAASGFTFRSYAMNWVRQAPGKGLEWVSTISSRGDTTNYADSVKGRFTISRDTSKNTLYLQMDNLRADDTAVYYCSKMFSYYYYYMDVWGKGTTVTVSS
VL: SYELTQPLSVSVALGQTARITCGGNNIGSKDVHWYQQKPGQAPVLVIYRDSNRPSGIPERFSGSNSGNTATLTISRAQAGDEADYYCQVWDSRTAVFGGGTQLTAL
notes: VH and VL only
On to B4, for which the Kd was 25 nM in the assay with human CD3e/d and 5.6 nM with human CD3e/g.

B5: mAb 251 (antibody, V domains shown)
VH: EVQILESGGGLVQPGGSLRLSCVASGFTFRSYVMSWVRRAPGRGLEWVSGISASGGNTYYADSVKGRFTISRDNSKNTLFLQMNGLRAEDTAVYYCAKLFSYYYYFMDVWGKGTTVTVSS
VL: SYELTQPLSVSVALGQTARITCGGNNIGSKDVHWYQQKPGQAPVLVIYRDSNRPSGIPERFSGSNSGNTATLTISGAQAGDEADYYCQVWDRRTAVFGGGTQLTAL
notes: VH and VL only
Take B5: the Kd with human CD3e/d is 24 nM; with human CD3e/g, 8.1 nM.

B6: mAb 263 (antibody, V domains shown)
VH: EVQLLESGGGLVQPGGSLRLSCTPSGITFNNYAMTWVRQAPGKGLEWVSGISVSGGSTYYADSVMGRFTISRDSSKTLYLQMNSLRAEDTAVYYCAKFHSHYYYYMDVWGKGTTVTVSS
VL: SYELTQPLSVSVALGQTARITCGGNNIGSKDVHWYQQKPGQAPVLVIYRDSNRPSGIPERFSGSNSGNTATLTISRAQAGDEADYYCQVWDRRTAVFGGGTQLTAL
notes: VH and VL only
In the case of B6, the Kd with human CD3e/d turned out to be 9 nM; in the assay with human CD3e/g, 4.1 nM.

B7: mAb 264 (antibody, V domains shown)
VH: EVQLLESGGGLVQPGGSLRLSCVASGFTFRSSSMTWVRQAPGKGLEWVSGIRGSGGRTYDAESVKGRFTISRDNSKNTLYLQMNSLRAEDTAEYYCAKLYDYYNDYMDVWGKGTTVTVSS
VL: SYELTQPLSVSVALGQTARITCGGNNIGSKNVHWYQQKPGQAPVLVIYRDSNRPSGIPERFSGSNSGNTATLTISRAQAGDEADYYCQVWDSSTAVFGGGTQLTAL
notes: VH and VL only
For B7, the Kd with human CD3e/d was found to be 32 nM; with human CD3e/g, 7.4 nM.

B8: mAb 262 (antibody, V domains shown)
VH: EVRLLESGGGLVQPGGSLRLSCAASGFTFRSSSMAWVRQDPGKGLEWVTGIRGSGGRTYDADSVKGRFTISRDNSKNTLYLQMNSLRAEDTAEYYCAKLYDYYNDYMDVWGKGTTVTVSS
VL: SYELTQPLSVSVALGQTARITCGGNNIGSKNVHWYQQKPGQAPVLVIYRDSNRPSGIPERFSGSNSGNTATLTISRAQAGDEADYYCQVWDSSTAVFGGGTQLTAL
notes: VH and VL only
As for B8, the figures for the Kd with human CD3e/d and with human CD3e/g were 26 nM and 10 nM, respectively.

B9: mAb 238 (antibody, V domains shown)
VH: EVQLLESGGDLVQPGGSLRLTCAASGFTFRSYAMNWVRQAPGKGLEWVSTISSRGDTTNYADSVKGRFTISRDTSKNTLYLQMDNLRADDTAVYYCSKMFSYYYYYMDVWGKGTTVTVSS
VL: SYELTQPLSVSVALGQTARITCGGNNIGSKDVHWYQQKPGQAPVLVIYRDSNRPSGIPERFSGSNSGNTATLTISRAQAGDEADYYCQVWDSSTAVFGGGTQLTAL
notes: VH and VL only
As for B9, the figures for the dissociation constant Kd with human CD3e/d and in the assay with human CD3e/g were 59 nM and 17 nM, respectively.

B10: mAb 261 (antibody, V domains shown)
VH: EVQLLESGGGFMQPGGSLRLSCAVSGFTFRTSSMAWVRQAPGKGLEWVSGIRGSGGRTYDAESVKGRFTISRDISKNTLYLQMNNLRAEDTAEYYCAKLYDYYNDFMDVWGKGTTVIVSA
VL: SYELTQPLSVSVALGQTARITCGGNNIGSKNVHWYQQKPGQAPVLVIYRDSNRPSGIPERFSGSNSGNTATLTISRAQAGDEADYYCQVWDSSTAVFGGGTQLTAL
notes: VH and VL only
In the case of B10, the Kd with human CD3e/d was determined as 16 nM; with human CD3e/g, 3 nM.

B11: mAb 259 (antibody, V domains shown)
VH: EVLLLESGGGLVQPGGSLRLSCAASGFTFRSSSMTWVRQAPGKGLEWVSGIRGSGGRTYDAESVKGRFTISRDISKNTLYLQMNSVRAEDTAEYYCAKLYDYYNDYMDVWGKGTTVTVSS
VL: SYELTQPLSVSVALGQTARITCGGNNIGSKNVHWYQQKPGQAPVLVIYRDSNRPSGIPERFSGSNSGNTATLTISRAQAGDEADYYCQVWDSSTAVFGGGTQLTAL
notes: VH and VL only
As to B11, the dissociation constant Kd was 63 nM with human CD3e/d and 13 nM with human CD3e/g.

B12: mAb 252 (antibody, V domains shown)
VH: EVQILESGGGLVQPGGSLRLSCVASGFTFRSYVMSWVRRAPGRGLEWVSGISTSGGNTYYADSVKGRFTISRDNSKNTLFLQMNGLRAEDTAVYYCAKLFSYYYYFMDVWGKGTTVTVSS
VL: SYELTQPLSVSVALGQTARITCGGNNIGSKDVHWYQQKPGQAPVLVIYRDSNRPSGIPERFSGSNSGNTATLTISGAQAGDEADYYCQVWDRRTAVFGGGTQLTAL
notes: VH and VL only
Consider B12, for which the Kd came to 30 nM in the assay with human CD3e/d and 13 nM with human CD3e/g.

B13: mAb 260 (antibody, V domains shown)
VH: EVQLLESGGGLVQPGGSLRLSCVASGFTFRSSSMAWVRQAPGKGLEWVSGIRGSGGRTYDAESVKGRFIISRDTSKNTLYLQMNSLRGEDTAEYFCAKLYDYYNDYMDVWGKGTTVTVSS
VL: SYELTQPLSVSVALGQTARITCGGNNIGSKNVHWYQQKPGQAPVLVIYRDSNRPSGIPERFSGSNSGNTATLTISRAQAGDEADYYCQVWDSSTAVFGGGTQLTAL
notes: VH and VL only
On to B13, for which the Kd came to 28 nM in the assay with human CD3e/d and 4.2 nM in the assay with human CD3e/g.

B14: mAb 68 (antibody, V domains shown)
VH: EVQLVDSGGGLVQPGGSLRLSCSGSGFTFSSYWMSWVRQAPGKGLEWVANIKQDGSQKYYVDSVKGRFTISRDNVKNSLYLQMNSLRVEDTAVYYCARDESSSWYWYFDLWGRGTLVTVSS
VL: DIQMTQSPSTLSASVGDRVTLTCRASQNIVKWLAWYQQKPGKAPKLLIYKASSLESGVPSWFSGSGSGTEFTLTINSLQPDDFATYYCQQYYTYSRTFGQGTKVEIK
notes: VH and VL only
Take B14: the values for the dissociation constant Kd in the assay with human CD3e/d and in the assay with human CD3e/g were 46.7 nM and 99.9 nM, respectively.

B15: mAb 213 (antibody, V domains shown)
VH: QEQLVESGGGVVQPGGSLRLSCAASGFTFSGYGMHWVRQAPGKGLEWVAIIWYNGRKTYYAESVKGRFTISRDNSKNTLSLQMNSLRVEDTAVYYCTTGKGYNWFDPWGQGTLVTVSS
VL: EIVMTQSPATLSVSPGERATLSCRASQSVSSNLAWYQQKPGQAPRLLIYGASTRATGIPARFSGSGSGTEFTLTISSLQSEDFAVYYCQQFNAWPLTFGGGTKMEIK
notes: VH and VL only
B15: the Kd in the assay with human CD3e/d was 13 nM; in the assay with human CD3e/g it was 8.6 nM.

B16: mAb 219 (antibody, V domains shown)
VH: QEQLVESGGGVVQPGGSLRLSCAASGFMFSGYGMHWVRQAPGKGLEWVAIIWYNGRKTYYTESVKGRFTISRDNSKNTLSLQMNSLRVEDTAVYYCTAGQGYNWFDPWGQGTLVTVSS
VL: EIVMTQSPATLSVSPGERATLSCRASQSVSSNLAWYQQKPGQAPRLLIYGASTRATGIPARFSGSGSGTEFTLTISSLQSEDFAVYYCQQFNAWPLTFGGGTKMEIK
notes: VH and VL only
On to B16, for which the results for the Kd in the assay with human CD3e/d and with human CD3e/g were 10 nM and 6.3 nM, respectively.

B17: mAb 225 (antibody, V domains shown)
VH: QEQLVESGGGVVQPGGSLRLSCAASGFKFSGYGMHWVRQAPGKGLEWVAIIWYNGRKTYYAESVKGRFTISRDNSKNTLSLQMNRLRVEDTAVYYCTAGQGYNWFDPWGQGTLVTVSS
VL: EIVMTQSPATLSVSPGERATLSCRASQSVSSNLAWYQQKPGQAPRLLIYGASTRATGIPARFSGSGSGTEFTLTISSLQSEDFAVYYCQQFNAWPLTFGGGTKMEIK
notes: VH and VL only
With B17, the Kd with human CD3e/d came out at 11 nM; in the assay with human CD3e/g, 6.2 nM.

B18: mAb 220 (antibody, V domains shown)
VH: QEQLVESGGGVVQPGGSLRLSCVASGFTFSGYGMHWVRQAPGKGLEWVAIIWYNGRKTYYAESVKGRFTISRDNSKNTLSLQMNSLRVEDTAVYYCTTGKGYNWFDPWGQGTLVTVSS
VL: EIVMTQSPATLSVSPGERATLSCRASQSVSSNLAWYQQKPGQAPRLLIYGASTRATGIPARFSGSGSGTEFTLTISSLQSEDFAVYYCQQFNAWPLTFGGGTKMEIK
notes: VH and VL only
For B18, the values for the Kd with human CD3e/d and in the assay with human CD3e/g were 16 nM and 11 nM, respectively.

B19: mAb 229 (antibody, V domains shown)
VH: QEQLVESGGGVVQPGRSLRLSCAASGFTFSSYGMHWVRQAPGKGLEWVAIIYYNGKKKDYADSVKGRFTISRDNSKNTLYLQMNSLRAEDTAVYYCARGLGYNWFDPWGQGTLVTVSS
VL: EIVLTQSPDFQSVTPKEKVTITCRASQSIGSSLHWYQQKPDQSPKLLIKYASQSFSGVPSRFSGSGSGTDFTLTINSLEAEDAATYYCHQSSSLPYTFGQGTKLEIK
notes: VH and VL only
For B19, the Kd in the assay with human CD3e/d amounted to 22 nM; with human CD3e/g, 47 nM.

As a reminder, the Kd is the free concentration of one partner at which half of the binding sites on the other are occupied at equilibrium, for simple one-to-one binding. Read a high Kd as weaker binding.
